T1: FcγRIIb extracellular domain with C-terminal His tag (human, UniProt P31994 43-217)
T1 construct: extracellular domain; expressed in FreeStyle293 cells; analyte in the Biacore assay; also called FcgRIIb; 2b; not shown: His tag at the C terminus
T1 sequence (looked up): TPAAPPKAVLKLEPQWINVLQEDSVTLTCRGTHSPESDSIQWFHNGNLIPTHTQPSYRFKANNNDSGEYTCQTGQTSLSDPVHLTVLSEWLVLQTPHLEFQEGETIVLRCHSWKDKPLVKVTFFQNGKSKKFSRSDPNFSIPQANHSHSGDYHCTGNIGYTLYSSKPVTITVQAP


Target: T1, FcγRIIb extracellular domain with …
Test: SPR (Biacore), captured antibody, FcγRIIb analyte; binding relative to GpH7-A5/GpH7-B3/GpL16-k0 = 100

Binder | He/Con_2b
GpH7-A5/GpH7-B3 variant H268_01G/GpL16-k0 (antibody, human IgG1, kappa, heterodimerized; mutation in the B3 H chain only; also called He Ab H268_01G) heavy 1: not shown heavy 2: not shown light: DIVMTQSPLSLPVTPGEPASISCQASESLVHSNRNTYLHWYLQKPGQSPQLLIYKVSNRFSGVPDRFSGSGSGTDFTLKISRVEAEDVGVYYCSQNTHVPPTFGQGTKVEIERTVAAPSVFIFPPSDEQLKSGTASVVCLLNNFYPREAKVQWKVDNALQSGNSQESVTEQDSKDSTYSLSSTLTLSKADYEKHKVYACEVTHQGLSSPVTKSFNRGEC | 144 % of control
GpH7-A5/GpH7-B3 variant G236_10E/GpL16-k0 (antibody, human IgG1, kappa, heterodimerized; mutation in the B3 H chain only; also called He Ab G236_10E) heavy 1: not shown heavy 2: not shown light: DIVMTQSPLSLPVTPGEPASISCQASESLVHSNRNTYLHWYLQKPGQSPQLLIYKVSNRFSGVPDRFSGSGSGTDFTLKISRVEAEDVGVYYCSQNTHVPPTFGQGTKVEIERTVAAPSVFIFPPSDEQLKSGTASVVCLLNNFYPREAKVQWKVDNALQSGNSQESVTEQDSKDSTYSLSSTLTLSKADYEKHKVYACEVTHQGLSSPVTKSFNRGEC | 110 % of control
GpH7-A5/GpH7-B3 variant A330_01G/GpL16-k0 (antibody, human IgG1, kappa, heterodimerized; mutation in the B3 H chain only; also called He Ab A330_01G) heavy 1: not shown heavy 2: not shown light: DIVMTQSPLSLPVTPGEPASISCQASESLVHSNRNTYLHWYLQKPGQSPQLLIYKVSNRFSGVPDRFSGSGSGTDFTLKISRVEAEDVGVYYCSQNTHVPPTFGQGTKVEIERTVAAPSVFIFPPSDEQLKSGTASVVCLLNNFYPREAKVQWKVDNALQSGNSQESVTEQDSKDSTYSLSSTLTLSKADYEKHKVYACEVTHQGLSSPVTKSFNRGEC | 104 % of control
GpH7-A5/GpH7-B3 variant G236_09D/GpL16-k0 (antibody, human IgG1, kappa, heterodimerized; mutation in the B3 H chain only; also called He Ab G236_09D) heavy 1: not shown heavy 2: not shown light: DIVMTQSPLSLPVTPGEPASISCQASESLVHSNRNTYLHWYLQKPGQSPQLLIYKVSNRFSGVPDRFSGSGSGTDFTLKISRVEAEDVGVYYCSQNTHVPPTFGQGTKVEIERTVAAPSVFIFPPSDEQLKSGTASVVCLLNNFYPREAKVQWKVDNALQSGNSQESVTEQDSKDSTYSLSSTLTLSKADYEKHKVYACEVTHQGLSSPVTKSFNRGEC | 167 % of control
GpH7-A5/GpH7-B3 variant G237_04F/GpL16-k0 (antibody, human IgG1, kappa, heterodimerized; mutation in the B3 H chain only; also called He Ab G237_04F) heavy 1: not shown heavy 2: not shown light: DIVMTQSPLSLPVTPGEPASISCQASESLVHSNRNTYLHWYLQKPGQSPQLLIYKVSNRFSGVPDRFSGSGSGTDFTLKISRVEAEDVGVYYCSQNTHVPPTFGQGTKVEIERTVAAPSVFIFPPSDEQLKSGTASVVCLLNNFYPREAKVQWKVDNALQSGNSQESVTEQDSKDSTYSLSSTLTLSKADYEKHKVYACEVTHQGLSSPVTKSFNRGEC | 149 % of control
GpH7-A5/GpH7-B3 variant A327_09D/GpL16-k0 (antibody, human IgG1, kappa, heterodimerized; mutation in the B3 H chain only; also called He Ab A327_09D) heavy 1: not shown heavy 2: not shown light: DIVMTQSPLSLPVTPGEPASISCQASESLVHSNRNTYLHWYLQKPGQSPQLLIYKVSNRFSGVPDRFSGSGSGTDFTLKISRVEAEDVGVYYCSQNTHVPPTFGQGTKVEIERTVAAPSVFIFPPSDEQLKSGTASVVCLLNNFYPREAKVQWKVDNALQSGNSQESVTEQDSKDSTYSLSSTLTLSKADYEKHKVYACEVTHQGLSSPVTKSFNRGEC | 172 % of control

More lines, now with the values ahead:

He/Con_2b | Binder
156 % of control | GpH7-A5/GpH7-B3 variant H268_18N/GpL16-k0 (antibody, human IgG1, kappa, heterodimerized; mutation in the B3 H chain only; also called He Ab H268_18N) heavy 1: not shown heavy 2: not shown light: DIVMTQSPLSLPVTPGEPASISCQASESLVHSNRNTYLHWYLQKPGQSPQLLIYKVSNRFSGVPDRFSGSGSGTDFTLKISRVEAEDVGVYYCSQNTHVPPTFGQGTKVEIERTVAAPSVFIFPPSDEQLKSGTASVVCLLNNFYPREAKVQWKVDNALQSGNSQESVTEQDSKDSTYSLSSTLTLSKADYEKHKVYACEVTHQGLSSPVTKSFNRGEC
239 % of control | GpH7-A5/GpH7-B3 variant H268_09D/GpL16-k0 (antibody, human IgG1, kappa, heterodimerized; mutation in the B3 H chain only; also called He Ab H268_09D) heavy 1: not shown heavy 2: not shown light: DIVMTQSPLSLPVTPGEPASISCQASESLVHSNRNTYLHWYLQKPGQSPQLLIYKVSNRFSGVPDRFSGSGSGTDFTLKISRVEAEDVGVYYCSQNTHVPPTFGQGTKVEIERTVAAPSVFIFPPSDEQLKSGTASVVCLLNNFYPREAKVQWKVDNALQSGNSQESVTEQDSKDSTYSLSSTLTLSKADYEKHKVYACEVTHQGLSSPVTKSFNRGEC
105 % of control | GpH7-A5/GpH7-B3 variant I332_06M/GpL16-k0 (antibody, human IgG1, kappa, heterodimerized; mutation in the B3 H chain only; also called He Ab I332_06M) heavy 1: not shown heavy 2: not shown light: DIVMTQSPLSLPVTPGEPASISCQASESLVHSNRNTYLHWYLQKPGQSPQLLIYKVSNRFSGVPDRFSGSGSGTDFTLKISRVEAEDVGVYYCSQNTHVPPTFGQGTKVEIERTVAAPSVFIFPPSDEQLKSGTASVVCLLNNFYPREAKVQWKVDNALQSGNSQESVTEQDSKDSTYSLSSTLTLSKADYEKHKVYACEVTHQGLSSPVTKSFNRGEC
104 % of control | GpH7-A5/GpH7-B3 variant I332_04F/GpL16-k0 (antibody, human IgG1, kappa, heterodimerized; mutation in the B3 H chain only; also called He Ab I332_04F) heavy 1: not shown heavy 2: not shown light: DIVMTQSPLSLPVTPGEPASISCQASESLVHSNRNTYLHWYLQKPGQSPQLLIYKVSNRFSGVPDRFSGSGSGTDFTLKISRVEAEDVGVYYCSQNTHVPPTFGQGTKVEIERTVAAPSVFIFPPSDEQLKSGTASVVCLLNNFYPREAKVQWKVDNALQSGNSQESVTEQDSKDSTYSLSSTLTLSKADYEKHKVYACEVTHQGLSSPVTKSFNRGEC
142 % of control | GpH7-A5/GpH7-B3 variant I332_10E/GpL16-k0 (antibody, human IgG1, kappa, heterodimerized; mutation in the B3 H chain only; also called He Ab I332_10E) heavy 1: not shown heavy 2: not shown light: DIVMTQSPLSLPVTPGEPASISCQASESLVHSNRNTYLHWYLQKPGQSPQLLIYKVSNRFSGVPDRFSGSGSGTDFTLKISRVEAEDVGVYYCSQNTHVPPTFGQGTKVEIERTVAAPSVFIFPPSDEQLKSGTASVVCLLNNFYPREAKVQWKVDNALQSGNSQESVTEQDSKDSTYSLSSTLTLSKADYEKHKVYACEVTHQGLSSPVTKSFNRGEC

— patent US20180155451A1 (published 2018)
